This is an account of results in publication PMC7267771.

The target in assay [1] is P. aeruginosa CpoB lacking its periplasmic export sequence (residues 22-274) (P. aeruginosa PA01). The assay can be described thus: SEC; PaCpoB alone, last step of its purification, procedure as for LpoP. On the technique in general: SEC sorts molecules by how far they enter the pores of the column.
Assay [2] deals with biotin-labeled UB2H domain of P. aeruginosa PBP1B (P. aeruginosa). Kind of assay: BLI; UB2H-Biot (25 μg/ml) immobilised on streptavidin biosensors (OctetRED96e); LpoP 0 to 6 μM; HBS-T (10 mM Hepes pH 7.5, 150 mM NaCl, 0.02% Tween); 23°C; responses at equilibrium of two series fitted together. For orientation: In BLI a coated tip is dipped into the sample, and binding shifts an interference pattern.

Assay [3] has as its target P. aeruginosa PBP1B (P. aeruginosa PA01).
Assay [4] has the same target. The assay can be described thus: SPR; PaPBP1B immobilised on a GLC amine coupling sensorchip (BioRad ProteOn XPR36); analyte in 1:1 serial dilution from 10 μM to 19.5 nM; 25°C; 75 μL/min, 5 min injection; 10 mM Tris/HCl, 150 mM NaCl, 0.05% Triton X-100, pH 7.5; response at equilibrium, non-linear regression assuming one-site saturation. For orientation: In SPR one partner is held on a chip, and binding of the other changes the refractive index at the surface.

Sequence of biotin-labeled UB2H domain of P. aeruginosa PBP1B (P. aeruginosa) (main, as listed by the source): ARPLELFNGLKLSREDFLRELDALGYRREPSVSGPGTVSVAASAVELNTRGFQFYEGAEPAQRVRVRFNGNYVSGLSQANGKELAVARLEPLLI

“P. aeruginosa CpoB lacking its periplasmic export sequence (residues 22-274) (natural protein)”: in assay [1], the stoichiometry N came to 3.
As for “LpoP (residues 20-259), preparation for NMR and BLI (natural protein)”, in assay [2], the Kd came to 0.4 µM.
In assay [3], “LpoP lacking its lipoprotein sorting sequence (residues 20-259) (natural protein)” yielded a GTase rate of PaPBP1B with and without LpoP (continuous fluorescence assay, 0.5 μM PaPBP1B, 10 μM LpoP, 37°C) of 4.5 fold; a transpeptidation products made by PaPBP1B with and without LpoP (endpoint TPase assay with radiolabelled lipid II, 10 μM LpoP, 37°C, 3 h) of 2 fold. The same substance registered a dissociation constant Kd in assay [4] of 4.2 µM.

As a reminder, the stoichiometry N is a count of units in the complex or per binding partner. By Kd is commonly meant a measure of binding affinity in units of concentration. Low values mean higher affinity, high ones lower affinity.
